Test results published in patent publication US20230391837A1 (ROWAN UNIVERSITY, published 2023).

Target: T1, human angiotensin converting enzyme 2 (ACE2) receptor on HSC-2 oral squamous cell carcinoma cells (human, UniProt Q9BYF1 18-805)
T1 construct: whole, on cells
Experiment: live cell confocal microscopy of HSC-2 cells with Alexa 595 labeled MASL (legend prints 1.4 pM) and Alexa 647 labeled ACE2 monoclonal antibody. This is colocalisation, not a direct binding assay.

B1: Maackia amurensis seed lectin (MASL) (other)
chain: SDELSFTINNFVPNEADLLFQGEASVSSTGVLQLTRVENGQPQQYSVGRALYAAPVRIWDNTTGSVASFSTSFTFVVKAPNPTITSDGLAFFLAPPDSQIPSGRVSKYLGLFNNSNSDSSNQIVAVEFDTYFGHSYDPWDPNYRHIGIDVNGIESIKTVQWDWINGGVAFATITYLAPNKTLIASLVYPSNQTSFIVAASVDLKEILPEWVRVGFSAATGYPTQVETHDVLSWSFTSTLEANCDAATEN
notes: also called Maacki amurensis seed lectin
binding result: binds
